From patent US20210032299A1 (Eli Lilly, published 2021)
Starred links: 1 amine or outer side, 2 acyl side, 3 side chain; linkers in the order of their positions; H or OH if unused. Non-standard residues stand in square brackets, D forms with d. Groups on a side chain read outwards from the residue. No end group written: not given here. *: point of attachment. C20 diacid = O=C(O)CCCCCCCCCCCCCCCCCCC(=O)*; C18 diacid = O=C(O)CCCCCCCCCCCCCCCCC(=O)*; αMePhe(2-F) = C[C@](N)(Cc1ccccc1F)C(=O)O; γGlu = O=C(O)[C@H](CCC(=O)[*:2])N[*:1]; αMeL = CC(C)C[C@](C)(N)C(=O)O; AEEA = NCCOCCOCC(=O)O; Aib = CC(C)(N)C(=O)O

T1: human glucose-dependent insulinotropic peptide receptor (human, UniProt P48546 22-466)
T1 sequence (looked up): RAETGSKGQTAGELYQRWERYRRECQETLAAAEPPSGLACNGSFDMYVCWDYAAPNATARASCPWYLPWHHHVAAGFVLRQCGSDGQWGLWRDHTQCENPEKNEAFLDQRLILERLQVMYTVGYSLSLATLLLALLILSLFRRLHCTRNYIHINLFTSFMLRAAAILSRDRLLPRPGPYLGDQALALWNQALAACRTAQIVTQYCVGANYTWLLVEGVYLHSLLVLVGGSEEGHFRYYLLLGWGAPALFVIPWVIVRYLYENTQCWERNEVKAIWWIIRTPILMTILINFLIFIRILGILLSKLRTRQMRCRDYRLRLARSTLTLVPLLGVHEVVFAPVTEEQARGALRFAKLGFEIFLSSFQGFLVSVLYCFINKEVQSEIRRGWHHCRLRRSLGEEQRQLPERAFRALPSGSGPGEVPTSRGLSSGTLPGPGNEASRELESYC


Columns and labels:
Assay in all cases: cell-based or functional assay
[1] = molecular target: T1, human glucose-dependent insulinotropic …
human GLP-1 receptor = human GLP-1 receptor (human, UniProt P43220 24-463)
human glucagon receptor = human glucagon receptor (human, UniProt P47871 26-477)
Sequence of human glucagon receptor (P47871 26-477): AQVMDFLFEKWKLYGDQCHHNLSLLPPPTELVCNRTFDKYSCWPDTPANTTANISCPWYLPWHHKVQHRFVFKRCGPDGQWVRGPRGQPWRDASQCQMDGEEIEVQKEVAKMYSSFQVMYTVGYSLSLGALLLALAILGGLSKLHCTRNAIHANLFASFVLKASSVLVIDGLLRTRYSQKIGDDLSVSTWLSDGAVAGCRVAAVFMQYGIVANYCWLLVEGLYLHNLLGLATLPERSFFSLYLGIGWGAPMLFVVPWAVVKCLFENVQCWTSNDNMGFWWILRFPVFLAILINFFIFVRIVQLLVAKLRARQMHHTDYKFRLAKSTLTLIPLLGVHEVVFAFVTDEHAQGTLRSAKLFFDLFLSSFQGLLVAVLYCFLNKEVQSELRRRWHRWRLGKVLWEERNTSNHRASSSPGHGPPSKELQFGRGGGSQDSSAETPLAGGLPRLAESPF

Binder	hGIPR cAMP Rel EC50 [1]	hGLP1R cAMP Rel EC50 (human GLP-1 receptor)	hGcgR cAMP Rel EC50 (human glucagon receptor)
Y[dA]EGTLISDYSILLDKK([AEEA-AEEA-γGlu-C18 diacid])AQ[Aib]DFVNWLLAQGPSSGAPPPS-NH2 (N-terminus assumed; SMILES CC[C@H](C)[C@H](NC(=O)[C@H](CO)NC(=O)[C@H](Cc1ccc(O)cc1)NC(=O)[C@H](CC(=O)O)NC(=O)[C@H](CO)NC(=O)[C@@H](NC(=O)[C@H](CC(C)C)NC(=O)[C@@H](NC(=O)CNC(=O)[C@H](CCC(=O)O)NC(=O)[C@@H](C)NC(=O)[C@@H](N)Cc1ccc(O)cc1)[C@@H](C)O)[C@@H](C)CC)C(=O)N[C@@H](CC(C)C)C(=O)N[C@@H](CC(C)C)C(=O)N[C@@H](CC(=O)O)C(=O)N[C@@H](CCCCN)C(=O)N[C@@H](CCCCNC(=O)COCCOCCNC(=O)COCCOCCNC(=O)CC[C@H](NC(=O)CCCCCCCCCCCCCCCCC(=O)O)C(=O)O)C(=O)N[C@@H](C)C(=O)N[C@@H](CCC(N)=O)C(=O)NC(C)(C)C(=O)N[C@@H](CC(=O)O)C(=O)N[C@@H](Cc1ccccc1)C(=O)N[C@H](C(=O)N[C@@H](CC(N)=O)C(=O)N[C@@H](Cc1c[nH]c2ccccc12)C(=O)N[C@@H](CC(C)C)C(=O)N[C@@H](CC(C)C)C(=O)N[C@@H](C)C(=O)N[C@@H](CCC(N)=O)C(=O)NCC(=O)N1CCC[C@H]1C(=O)N[C@@H](CO)C(=O)N[C@@H](CO)C(=O)NCC(=O)N[C@@H](C)C(=O)N1CCC[C@H]1C(=O)N1CCC[C@H]1C(=O)N1CCC[C@H]1C(=O)N[C@@H](CO)C(N)=O)C(C)C) [Example 32]	0.00469 nM	> 5000 nM	> 5000 nM
Y[Aib]EGT[αMeL]ISDYSIALDKK([AEEA-AEEA-γGlu-C20 diacid])HQ[Aib]EFVNYLLATGPSSGAPPPS-NH2 (N-terminus assumed; SMILES CC[C@H](C)[C@H](NC(=O)[C@H](CO)NC(=O)[C@H](Cc1ccc(O)cc1)NC(=O)[C@H](CC(=O)O)NC(=O)[C@H](CO)NC(=O)[C@@H](NC(=O)[C@](C)(CC(C)C)NC(=O)[C@@H](NC(=O)CNC(=O)[C@H](CCC(=O)O)NC(=O)C(C)(C)NC(=O)[C@@H](N)Cc1ccc(O)cc1)[C@@H](C)O)[C@@H](C)CC)C(=O)N[C@@H](C)C(=O)N[C@@H](CC(C)C)C(=O)N[C@@H](CC(=O)O)C(=O)N[C@@H](CCCCN)C(=O)N[C@@H](CCCCNC(=O)COCCOCCNC(=O)COCCOCCNC(=O)CC[C@H](NC(=O)CCCCCCCCCCCCCCCCCCC(=O)O)C(=O)O)C(=O)N[C@@H](Cc1c[nH]cn1)C(=O)N[C@@H](CCC(N)=O)C(=O)NC(C)(C)C(=O)N[C@@H](CCC(=O)O)C(=O)N[C@@H](Cc1ccccc1)C(=O)N[C@H](C(=O)N[C@@H](CC(N)=O)C(=O)N[C@@H](Cc1ccc(O)cc1)C(=O)N[C@@H](CC(C)C)C(=O)N[C@@H](CC(C)C)C(=O)N[C@@H](C)C(=O)N[C@H](C(=O)NCC(=O)N1CCC[C@H]1C(=O)N[C@@H](CO)C(=O)N[C@@H](CO)C(=O)NCC(=O)N[C@@H](C)C(=O)N1CCC[C@H]1C(=O)N1CCC[C@H]1C(=O)N1CCC[C@H]1C(=O)N[C@@H](CO)C(N)=O)[C@@H](C)O)C(C)C) [Example 35]	0.0125 nM	> 5000 nM	> 5000 nM
Ac-[dY]AEGT[αMePhe(2-F)]ISDYSIALDKK([AEEA-AEEA-γGlu-C20 diacid])HQ[Aib]EFVNYLLEGGPSSGAPPPS-NH2 (SMILES CC[C@H](C)[C@H](NC(=O)[C@H](CO)NC(=O)[C@H](Cc1ccc(O)cc1)NC(=O)[C@H](CC(=O)O)NC(=O)[C@H](CO)NC(=O)[C@@H](NC(=O)[C@](C)(Cc1ccccc1F)NC(=O)[C@@H](NC(=O)CNC(=O)[C@H](CCC(=O)O)NC(=O)[C@H](C)NC(=O)[C@@H](Cc1ccc(O)cc1)NC(C)=O)[C@@H](C)O)[C@@H](C)CC)C(=O)N[C@@H](C)C(=O)N[C@@H](CC(C)C)C(=O)N[C@@H](CC(=O)O)C(=O)N[C@@H](CCCCN)C(=O)N[C@@H](CCCCNC(=O)COCCOCCNC(=O)COCCOCCNC(=O)CC[C@H](NC(=O)CCCCCCCCCCCCCCCCCCC(=O)O)C(=O)O)C(=O)N[C@@H](Cc1c[nH]cn1)C(=O)N[C@@H](CCC(N)=O)C(=O)NC(C)(C)C(=O)N[C@@H](CCC(=O)O)C(=O)N[C@@H](Cc1ccccc1)C(=O)N[C@H](C(=O)N[C@@H](CC(N)=O)C(=O)N[C@@H](Cc1ccc(O)cc1)C(=O)N[C@@H](CC(C)C)C(=O)N[C@@H](CC(C)C)C(=O)N[C@@H](CCC(=O)O)C(=O)NCC(=O)NCC(=O)N1CCC[C@H]1C(=O)N[C@@H](CO)C(=O)N[C@@H](CO)C(=O)NCC(=O)N[C@@H](C)C(=O)N1CCC[C@H]1C(=O)N1CCC[C@H]1C(=O)N1CCC[C@H]1C(=O)N[C@@H](CO)C(N)=O)C(C)C) [Example 33]	0.0551 nM	> 5000 nM	> 5000 nM
Y[Aib]EGT[αMePhe(2-F)]ISDYSIALDKK([AEEA-AEEA-γGlu-C20 diacid])HQ[Aib]EFVNYLLATGPSSGAPPPS-NH2 (N-terminus assumed; SMILES CC[C@H](C)[C@H](NC(=O)[C@H](CO)NC(=O)[C@H](Cc1ccc(O)cc1)NC(=O)[C@H](CC(=O)O)NC(=O)[C@H](CO)NC(=O)[C@@H](NC(=O)[C@](C)(Cc1ccccc1F)NC(=O)[C@@H](NC(=O)CNC(=O)[C@H](CCC(=O)O)NC(=O)C(C)(C)NC(=O)[C@@H](N)Cc1ccc(O)cc1)[C@@H](C)O)[C@@H](C)CC)C(=O)N[C@@H](C)C(=O)N[C@@H](CC(C)C)C(=O)N[C@@H](CC(=O)O)C(=O)N[C@@H](CCCCN)C(=O)N[C@@H](CCCCNC(=O)COCCOCCNC(=O)COCCOCCNC(=O)CC[C@H](NC(=O)CCCCCCCCCCCCCCCCCCC(=O)O)C(=O)O)C(=O)N[C@@H](Cc1c[nH]cn1)C(=O)N[C@@H](CCC(N)=O)C(=O)NC(C)(C)C(=O)N[C@@H](CCC(=O)O)C(=O)N[C@@H](Cc1ccccc1)C(=O)N[C@H](C(=O)N[C@@H](CC(N)=O)C(=O)N[C@@H](Cc1ccc(O)cc1)C(=O)N[C@@H](CC(C)C)C(=O)N[C@@H](CC(C)C)C(=O)N[C@@H](C)C(=O)N[C@H](C(=O)NCC(=O)N1CCC[C@H]1C(=O)N[C@@H](CO)C(=O)N[C@@H](CO)C(=O)NCC(=O)N[C@@H](C)C(=O)N1CCC[C@H]1C(=O)N1CCC[C@H]1C(=O)N1CCC[C@H]1C(=O)N[C@@H](CO)C(N)=O)[C@@H](C)O)C(C)C) [Example 34]	0.0177 nM	462 nM	913 nM
Y[Aib]EGTFISDYSILLDKK([AEEA-AEEA-γGlu-C18 diacid])HQ[Aib]DFVNYLLAAGPSSGAPPPS-NH2 (N-terminus assumed; SMILES CC[C@H](C)[C@H](NC(=O)[C@H](CO)NC(=O)[C@H](Cc1ccc(O)cc1)NC(=O)[C@H](CC(=O)O)NC(=O)[C@H](CO)NC(=O)[C@@H](NC(=O)[C@H](Cc1ccccc1)NC(=O)[C@@H](NC(=O)CNC(=O)[C@H](CCC(=O)O)NC(=O)C(C)(C)NC(=O)[C@@H](N)Cc1ccc(O)cc1)[C@@H](C)O)[C@@H](C)CC)C(=O)N[C@@H](CC(C)C)C(=O)N[C@@H](CC(C)C)C(=O)N[C@@H](CC(=O)O)C(=O)N[C@@H](CCCCN)C(=O)N[C@@H](CCCCNC(=O)COCCOCCNC(=O)COCCOCCNC(=O)CC[C@H](NC(=O)CCCCCCCCCCCCCCCCC(=O)O)C(=O)O)C(=O)N[C@@H](Cc1c[nH]cn1)C(=O)N[C@@H](CCC(N)=O)C(=O)NC(C)(C)C(=O)N[C@@H](CC(=O)O)C(=O)N[C@@H](Cc1ccccc1)C(=O)N[C@H](C(=O)N[C@@H](CC(N)=O)C(=O)N[C@@H](Cc1ccc(O)cc1)C(=O)N[C@@H](CC(C)C)C(=O)N[C@@H](CC(C)C)C(=O)N[C@@H](C)C(=O)N[C@@H](C)C(=O)NCC(=O)N1CCC[C@H]1C(=O)N[C@@H](CO)C(=O)N[C@@H](CO)C(=O)NCC(=O)N[C@@H](C)C(=O)N1CCC[C@H]1C(=O)N1CCC[C@H]1C(=O)N1CCC[C@H]1C(=O)N[C@@H](CO)C(N)=O)C(C)C) [Example 31]	0.0148 nM	> 5000 nM	1750 nM
